Reference: patent US5585345

target: human glycoprotein hormone alpha subunit (human) (UniProt P01215); test: co-expression with alpha subunit in CHO cells, 35S-cysteine pulse-chase, immunoprecipitation, SDS-PAGE

| Substance | Dimer Recovery (%) |
| --- | --- |
| CG(1-114) | 90 |
| LH(1-114) | 80 |
| LHarg^8 | 32 |
| LHarg^8 (1-114) | 91 |
| LHarg^8 arg^10 (1-114) | 95 |
| LHasn^58 (1-114) | > 95 |
| LHthr^15 | 30 |
| LHthr^42 (1-114) | 84 |
| human chorionic gonadotropin beta subunit | > 95 |
| human luteinizing hormone beta subunit | 42 |

target: human glycoprotein hormone alpha subunit (human) (UniProt P01215); test: co-expression with alpha subunit in CHO cells, pulse-chase, immunoprecipitation; monoglycosylated form recovered in the medium

| Substance | Dimer Recovery (%) |
| --- | --- |
| LHthr^15 (1-114) | 40 |

target: human glycoprotein hormone alpha subunit (human) (UniProt P01215); test: co-expression with alpha subunit in CHO cells, pulse-chase, immunoprecipitation; recovery of diglycosylated form, estimated

| Substance | Dimer Recovery (%) |
| --- | --- |
| LHthr^15 (1-114) | > 95 |
